Positions count from the first letter of the chain named.
B1: BAP-143-wildtype (antibody, V domains shown)
VH: EVQLVESGGGLVQPGGSLRLSCAASGFTFSSYNMNWVRQAPGKGLEWVSYISSSSSTIYYADSVKGRFTISRDNAKNSLSLQMNSLRDEDTAVYYCARAYYYGMDVWGQGTTVTVSS
VL: DIQMTQSPSSVSASVGDRVTITCRASQGISGWLAWYQQKPGKAPKFLIYAASTLQSGVPSRFSGSGSGTDFTLTISSLQPEDFATYYCQQANSFPPTFGGGTKVEIK
notes: 150 kDa used in SPR; also called BAP143-00-00; benchmark (BM)
B2: BAP-143-00-01 (antibody, V domains shown)
VH: B1 VH
VL: B1 VL with L33E
notes: Used as a conjugate with a linker payload (CAB ADC)

Experiments:
cynoNectin4-mFc = target: T1, cynoNectin4-mFc (cyno, UniProt A0A2K5WES1 32-349); assay: SPR, cynoNectin4-mFc immobilized, pH 6.5
T1 construct: Immobilized on the SPR chip; also called cyanoNectin4; not shown: mFc (mouse Fc)
T1 sequence: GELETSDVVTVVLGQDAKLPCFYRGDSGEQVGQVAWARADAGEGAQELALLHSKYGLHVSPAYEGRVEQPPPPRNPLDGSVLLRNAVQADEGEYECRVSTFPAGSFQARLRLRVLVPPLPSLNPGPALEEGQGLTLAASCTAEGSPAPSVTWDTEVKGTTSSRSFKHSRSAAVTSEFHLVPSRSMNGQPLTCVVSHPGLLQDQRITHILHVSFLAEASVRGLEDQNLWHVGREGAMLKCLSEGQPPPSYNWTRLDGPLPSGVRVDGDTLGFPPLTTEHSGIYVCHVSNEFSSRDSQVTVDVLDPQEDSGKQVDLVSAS
Protocol: (§1) Binding kinetics of anti-Nectin4 antibodies were measured by surface plasmon resonance using a SPR2/4 instrument (Sierra Sensors, Hamburg, Germany) and flat amine sensor chips. The SPR sensor contained four flow cells (FC1-FC4), each of which was addressed individually or in groups. huNectin4-His was immobilized in FC2, and cynoNectin4-mFc in FC4. No protein was immobilized in FC1 and FC3 which were used as control surfaces for FC2 and FC4, respectively.
(§2) All injections were done at a flow rate of 25 μL/min at 25° C. The sensor surface was activated with 1-ethyl-3-(3-dimethylaminopropyl)-carbodiimide (EDC) and N-hydroxysuccinimide (NHS) (200 mM/50 mM) for 480 seconds. HuNectin4-His (2 μg/mL in 10 mM NaAc, pH4.5) was injected for 480s and the surface was inactivated by injecting 1M ethanolamine-HCl for 480s. CynoNectin4 was immobilized using the same conditions as described for huNectin4-His, except that the cynoNectin4 was diluted into 10 mM NaAc buffer having pH 5.0. The control surface was activated and deactivated using the same conditions, but without injecting protein. PBST buffer (PBS pH 7.4 with 0.05% TWEEN20™) was used as running buffer for the surface preparation. The running solution was switched to PBST with 30 mM sodium bicarbonate with the pH adjusted as indicated in the figures before the analyte injections. The instrument was equilibrated with the running solution for one hour before the first analyte injection.
(§3) The off-rate was measured for 360s. The chip surface was regenerated after each cycle of interaction analysis by injecting 6 μL of 10 mM glycine (pH 2.0). Flow cells 1 and 3 without immobilized protein were used as control surfaces for reference subtraction.

human Nectin-4 on cells [1] = target: T2, human Nectin-4 on cells (human, UniProt Q96NY8 32-510); assay: FACS, HEK293 cells expressing human Nectin-4
T2 construct: whole, on cells; also called HEK293 cells expressing human Nectin-4; T47D cells that express human Nectin-4
T2 sequence (looked up): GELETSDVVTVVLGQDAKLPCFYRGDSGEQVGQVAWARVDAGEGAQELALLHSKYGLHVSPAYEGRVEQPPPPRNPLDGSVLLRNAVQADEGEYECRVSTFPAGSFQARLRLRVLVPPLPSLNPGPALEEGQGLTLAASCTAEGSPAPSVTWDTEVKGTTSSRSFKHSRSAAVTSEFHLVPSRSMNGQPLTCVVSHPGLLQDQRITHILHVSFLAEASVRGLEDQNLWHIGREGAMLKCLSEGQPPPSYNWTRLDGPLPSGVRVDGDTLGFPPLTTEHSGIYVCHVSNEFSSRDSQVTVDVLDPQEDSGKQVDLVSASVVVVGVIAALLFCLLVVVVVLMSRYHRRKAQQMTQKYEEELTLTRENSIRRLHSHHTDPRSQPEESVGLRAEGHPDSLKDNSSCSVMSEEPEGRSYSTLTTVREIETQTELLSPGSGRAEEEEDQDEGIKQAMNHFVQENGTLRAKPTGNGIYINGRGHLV
Protocol: FACS analysis was carried out using HEK293 cells expressing human Nectin-4.

human Nectin-4 on cells [2] = target: T2, human Nectin-4 on cells; assay: FACS, T47D cells
huNectin4-His [3] = target: T3, huNectin4-His (human, UniProt Q96NY8 32-349); assay: SPR, huNectin4-His immobilized, pH 6.0
T3 construct: Immobilized on the SPR chip; also called humanNectin4; human Nectin4; not shown: His tag
T3 sequence (looked up): T1 sequence with A39V, V230I
Protocol: as §1, §2, §3

huNectin4-His [4] = target: T3, huNectin4-His; assay: SPR, huNectin4-His immobilized, pH 7.4
Protocol: as §1, §2, §3

cyno Nectin-4 on cells = target: T4, cyno Nectin-4 on cells (cyno, UniProt A0A2K5WES1 32-510); assay: FACS, HEK293 cells expressing cyno Nectin-4
T4 construct: whole, on cells; also called HEK293 cells expressing cyno Nectin-4; cyno Nectin-4 cells
T4 sequence: T2 sequence (looked up) with V39A, I230V, A437T

human Nectin-4 on cells [5] = target: T2, human Nectin-4 on cells; assay: FACS, T47D cells; remark: listed apart in the source

Row | Binder | Kd (cynoNectin4-mFc) [nM] | Ratio (pH 7.4/6.0) of EC50 (human Nectin-4 on cells [1]) | Ratio (pH 7.4/6.0) of EC50 (human Nectin-4 on cells [2]) | Kd (huNectin4-His [3]) [nM] | Kd (huNectin4-His [4]) [nM] | Ratio (pH 7.4/6.0) of EC50 (cyno Nectin-4 on cells) | Ratio (pH 7.4/6.0) of EC50 (human Nectin-4 on cells [5]) | koff (cynoNectin4-mFc) [s⁻¹] | kon (cynoNectin4-mFc) [M⁻¹ s⁻¹] | koff (huNectin4-His [3]) [s⁻¹] | kon (huNectin4-His [3]) [M⁻¹ s⁻¹] | koff (huNectin4-His [4]) [s⁻¹] | kon (huNectin4-His [4]) [M⁻¹ s⁻¹]
1 | B1 | 0.52 | 1.2 | 0.9 | 1.49 | 0.943 | 1.7 | 1.2 |  |  |  |  |  | 
2 | B2 | 2.94 | 3.3 | 6.7 | 12.3 | 3.89 | 4.1 | 6.2 | 0.00134 | 457000 | 0.00367 | 298000 | 0.00267 | 686000

— patent US20230235054A1 (BIOATLA, published 2023)
